Biological target: T1, XcpX (29–313), soluble form (P. aeruginosa, UniProt Q00518 29-313)
T1 construct: minor pseudopilin XcpX (GspK) of Pseudomonas aeruginosa, soluble form, residues 29-313; buffers with XcpX held 1 mM CaCl2; The XcpVWX complex was digested in situ with chymotrypsin before crystallisation; also called XcpX^(GspK); GspK; source: E. coli BL21 (DE3), purified (Ni2+-NTA, TEV digestion, Superdex 75); not shown: thioredoxin (Trx), N-terminal, cleaved
T1 sequence: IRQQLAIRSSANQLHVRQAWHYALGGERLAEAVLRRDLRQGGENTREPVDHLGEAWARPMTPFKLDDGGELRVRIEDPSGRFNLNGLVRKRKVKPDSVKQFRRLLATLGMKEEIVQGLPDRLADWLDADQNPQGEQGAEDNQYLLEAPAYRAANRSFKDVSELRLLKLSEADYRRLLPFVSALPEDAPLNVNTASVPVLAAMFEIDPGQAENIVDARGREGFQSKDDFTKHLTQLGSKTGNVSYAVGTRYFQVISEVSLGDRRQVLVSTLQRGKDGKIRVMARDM
Assay: SAXS with inline SEC; XcpUVWX complex at 6.15 mg/ml in 25 mM HEPES pH 7.0, 150 mM NaCl, 5% glycerol, 2 mM DTT
Settings: both partners purified

B1: XcpV (28–129), soluble form (domain or fragment)
chain: SASARSLQNASRLEDKTLAMWIADNRLNELQLEQTPPSSGRNQGELEFAGRRWEWRTQVDSTAEQDMRRVIVWVAAKPLGRERGSIEERAAARLVGFLGSQP
notes: minor pseudopilin XcpV (GspI) of Pseudomonas aeruginosa, soluble form, residues 28-129; The XcpVWX complex was digested in situ with chymotrypsin before crystallisation; the chains in PDB 5VTM may be shorter; also called XcpV^(GspI); GspI; source: E. coli BL21 (DE3), purified (Ni2+-NTA, TEV digestion, Superdex 75); not shown: thioredoxin (Trx), N-terminal, cleaved
B1: binds.
